In the RNAGym collection of RNA variant scans (doi:10.1021/acssynbio.7b00057):

B1: Pistol ribozyme (parent)
chain: GGGUCGUUGUUCCAUAAUCGCGUGGAUAUGGCACGCAAGUUUCUACCGGGCACCGUAAAUGUCCGACUGGAGCCGUUCGGGCGGCUAUAAACAGACCUCAGGCCCGAAGCGUGGCGGCACCUGCCGCCGGUGGUAAAAAAGAUCGGAAGAGCACACGUCU

Variants of: B1
Assay: aptazyme ON/OFF ratio, guanine; higher = stronger switching; co-transcriptional cleavage with and without guanine

Row | Variant | aptazyme ON/OFF ratio
1 | U7C U8G G9C U10G U11A C12G | 1.24
2 | U7C U8G G9A C12A C13G | 1.16
3 | U8C G9A U10G U11G C12G C13G | 1.09
4 | U7G U8C G9U U11G C12A | 1.44
5 | U7G U8C G9A U11A C12U C13G | 1.08
6 | U7A G9U U10G U11A C12G C13G | 1.21
7 | G9A U10G C12G C13U | 1.29
8 | U7A G9U U11C C12G C13G | 1.12
9 | U7G U11C C12U | 1.27
10 | U7C U10C U11C C12U C13U | 1.33
11 | U7A U8G G9C U11C C12U C13U | 1.22
12 | U7C U8C G9C U11G C13G | 1.12
13 | U7C U8A G9U U10A C12U C13A | 1.24
14 | U7C U8C G9U U10G U11G C12A C13A | 1.01
15 | U7C G9C U10G C12G C13A | 1.11
16 | U7G U8C G9U U11C C12A C13G | 1.32
17 | U8A U10C U11A | 1.15
18 | U11G C12G | 1.34
19 | U7G U8G U10C U11A C12G | 1.21
20 | U7A U8A G9A U10A U11C C12G C13U | 1.1
21 | U7C U8C G9A U10A U11G | 1.55

Row | Variant | aptazyme ON/OFF ratio
22 | U8C G9A U10C U11A C12G C13G | 1.5
23 | G9U U10C U11C C12A C13A | 1.15
24 | U7G G9U U10G U11C C12G C13A | 1.16
25 | U7A U8G G9A U10C C12A C13A | 1.05
26 | U10G U11G C12G C13G | 1.18
27 | U7C U8G U11C | 3.13
28 | U8A G9A U10C C12U C13G | 1.26
29 | U7C U8G U10G U11C C12U C13G | 1.21
30 | U7C U8G G9U U10G | 1.28
31 | U7C U8C G9A U11C C12G C13U | 1.23
32 | U7C U8G G9A U10G U11A C12G C13G | 1.24
33 | U8A C13A | 1.24
34 | U10G U11C C13U | 1.04
35 | U7A U8G G9A U10C U11G C12G | 1.33
36 | C12G C13A | 1.37
37 | U7C U11G C12G C13U | 1.15
38 | U7A U8A G9C U10A C12A C13A | 1.11
39 | U7C U8A G9U U10A U11C C12G | 1.28
40 | U7C G9A U11A C12U C13U | 1.3
41 | U8A G9U U10A U11A C12G | 1.25
42 | U7G U8A G9A U10C U11C C12A C13A | 1.07

Row | Variant | aptazyme ON/OFF ratio
43 | U8C G9C U10A U11C C12G | 1.2
44 | U7G U8A G9A U11C C12A C13A | 1.19
45 | U7C U8G G9C U10G U11A C12U | 1.24
46 | U7A U8A G9U U11C C13A | 1.11
47 | U7A G9U C12G | 1.39
48 | U8C G9U C12A C13U | 1.19
49 | U7G U8G U10C U11C C12A | 1.41
50 | U7G U8A G9U U10C U11A C12U | 1.11
51 | U7C U10C U11A C12G C13A | 1.15
52 | G9U U10G C12G | 1.64
53 | U7G G9C U11C C12A C13G | 1.28
54 | U7A U8A U10C U11G C12G | 1.34
55 | U7A G9A U10C U11G C12G C13A | 1.17
56 | U8G G9U U11A C12U C13G | 1.22
57 | U8C G9C U10A C12G C13G | 1.15
58 | U7C U8A G9C U10A C13A | 1.17
59 | U7C U8A G9C U10C U11C C12A C13G | 1
60 | U7G U8G G9A U10G C12U C13A | 1.25
61 | U8C G9U U10G U11A C12U C13A | 1.24
62 | U7A U10C U11C C12U | 1.04
63 | U7G U8A G9C U10C U11C C12G C13A | 1.05

Row | Variant | aptazyme ON/OFF ratio
64 | U7G U8C G9A U10C U11A C13G | 1.07
65 | U7A G9C U10G C12G C13U | 1.1
66 | U7G U8G G9C U10C C12U C13G | 1.36
67 | U7A U8A G9C U10G U11G C12U C13G | 1.15
68 | U7A U8G G9U U11A C12A C13A | 1.53
69 | U8G G9A U10G U11C C12A C13U | 1.18
70 | U8A G9A U11C C13G | 1.08
71 | U8C G9A U11G C12A C13U | 1.27
72 | U8C G9C C12G C13G | 1.14
73 | U8C G9U U10A U11G C12A C13U | 1.26
74 | U7G G9A U10A U11C C12U C13U | 1.2
75 | U7G U8A G9A U10C U11G C12G C13G | 1.19
76 | U7C U11C C13U | 1.13
77 | U7C U8A G9A U10C U11C C12U C13U | 1.04
78 | U7G U8G G9A C13G | 1.17
79 | U7A U8G U10C C12A C13U | 1.51
80 | U8C G9U C13G | 1.03
81 | U7A U8A G9U U11G C12A | 1.1
82 | U7C U8G G9C U10G C12G C13G | 1.12
83 | U8A U10G C12A | 1.31
84 | U7G G9C U10G U11A C12A | 1.18
